In paper PMC4014737:

Target: biotinylated yeast L3Δ21 peptide (S. cerevisiae) (UniProt P14126)
Experiment: SPR; Biacore 3000; biotinylated L3Δ21 peptide on an SA sensor chip (Fc2), PAP as analyte at 103, 94, 75 and 45 pM; 25 °C; HBS-EP (0.1 M HEPES pH 7.4, 0.15 M NaCl, 3 mM EDTA, 0.005% polysorbate 20); 1:1 Langmuir fit

UniProt P14126, sequence (P14126 1-21, stated change not applied): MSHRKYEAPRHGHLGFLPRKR

## His-tagged pokeweed antiviral protein (PAP), recombinant (enzyme)
  Kd: 24.8 nM
  koff: 4.6e-05 s⁻¹
  kon: 1860 M⁻¹ s⁻¹
